Experiments:
[1] = target: Glu218 (UniProt position 218, RALAEEKGLEF); experiment: ITC; conditions: 20 °C, 200 mM NaCl, 50 mM Tris (pH 8.5-7.5), 50 mM BisTris (pH 7.0-6.0) or 50 mM Na-acetate (pH 5.5-4.0), each with 1 mM beta-mercaptoethanol
[2] = target: Glu190 (UniProt position 190, EALVEEEKTGD); experiment: ITC; conditions: 20 °C, 200 mM NaCl, 50 mM Tris (pH 8.5-7.5), 50 mM BisTris (pH 7.0-6.0) or 50 mM Na-acetate (pH 5.5-4.0), each with 1 mM beta-mercaptoethanol
[3] = unstructured peptides; cited from earlier work
[4] = c-di-GMP-bound protein (pKab of the thermodynamic cycle)
[5] = ligand-free protein (pKaf of the thermodynamic cycle)

For “PilF GSPII-B domain (PilF159-302) Q218E (Thermus thermophilus; Q218E)”, the pKa [1, 4] was 7.1 and the pKa [1, 5] was 5.9.

For “PilF GSPII-B domain (PilF159-302) Q190E (Thermus thermophilus; Q190E)”, the pKa [2, 4] was 7.5 and the pKa [2, 5] was 6.3.

In the case of N[C@@H](CCC(=O)O)C(=O)O [glutamate], the “pKa of side chain carboxylate group” value [3] is given as about 4.4.

Source: PMC12207366, “Protonated Glutamate and Aspartate Side Chains Can Recognize Phosphodiester Groups via Strong and Short Hydrogen Bonds in Biomacromolecular Complexes” (Angewandte Chemie (International Ed. in English), 2025)
